Results: PMC4686876
Read-outs that look alike come from different tables or passages of the source.

How the values were obtained:
[1] = target: T1, interferon-gamma (IFNγ) (human) (UniProt P01579); assay: SPR; conditions: SPR (BIAcore T200, biotinylated aptamer on SA chip), 1x PBS (1 mM KH2PO4, 3 mM Na2HPO4) with 205 mM NaCl final, 0.05% NP-40, pH 7.4, 25 °C, IFNγ 1.25-50 nM
T1 sequence: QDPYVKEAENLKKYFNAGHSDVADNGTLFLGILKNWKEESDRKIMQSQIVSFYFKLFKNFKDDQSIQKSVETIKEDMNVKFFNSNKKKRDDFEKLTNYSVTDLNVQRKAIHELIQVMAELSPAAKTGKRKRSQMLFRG

[2] = target: T1, interferon-gamma (IFNγ) (human); conditions: N = unnatural base Ds at positions 18, 29, 40; SPR (BIAcore T200, biotinylated aptamer on SA chip), 1x PBS (1 mM KH2PO4, 3 mM Na2HPO4) with 205 mM NaCl final, 0.05% NP-40, pH 7.4, 25 °C; IFNγ 1.25-50 nM; cited from earlier work

| Sequence | Kd ([1]; N = unnatural base Ds at positions 28, 39) [nM] | Kd ([1]; N = unnatural base Ds at positions 18, 29, 40) [nM] | Kd [2] [nM] |
| --- | --- | --- | --- |
| CCCGCCCGGGTCCGCGAAGCGGTAGGTNTGGGCTAGGCNGCTGGCGGGCGCGAAGCG [aptamer 57mhGC] | 0.033 | – | – |
| TCCACTCGGGTCATTTANTAATGTAGGTNTGGGCTAGGCNGCTAGTGGA [aptamer 49] | – | 0.046 | 0.046 |
